Literature values, collected in PMC2934757.
pKd: −log10 of the molar value.

Target: IGF-1 (Homo sapiens) (UniProt P05019)
Sequence of UniProt P05019 (P05019 49-118): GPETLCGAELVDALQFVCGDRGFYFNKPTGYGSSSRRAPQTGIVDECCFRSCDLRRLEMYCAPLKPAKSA

pKd: 8.15
Substance: IGFBP-2 1-248 (from UniProt P18065)
